Experimental data taken from paper PMC6638966, “The demethylase NMAD-1 regulates DNA replication and repair in the Caenorhabditis elegans germline” (PLoS Genetics, 2019).

Biological target: T1, GST-tagged TOP-2 (C. elegans, UniProt Q23670 1-1520)
T1 construct: TOP-2, topoisomerase II of C. elegans; also called topoisomerase II; source: E. coli BL21, purified (glutathione sepharose 4B)
Assay: pull-down; 3 μg GST-tagged protein on glutathione sepharose 4B beads with 1 μg HIS-tagged NMAD-1 in TAP wash buffer (50 mM Tris-HCl pH 8.0, 100 mM KCl), 1 h at 4 °C; blot probed with HIS antibody
Conditions: both partners purified

T1 sequence (Q23670 whole entry): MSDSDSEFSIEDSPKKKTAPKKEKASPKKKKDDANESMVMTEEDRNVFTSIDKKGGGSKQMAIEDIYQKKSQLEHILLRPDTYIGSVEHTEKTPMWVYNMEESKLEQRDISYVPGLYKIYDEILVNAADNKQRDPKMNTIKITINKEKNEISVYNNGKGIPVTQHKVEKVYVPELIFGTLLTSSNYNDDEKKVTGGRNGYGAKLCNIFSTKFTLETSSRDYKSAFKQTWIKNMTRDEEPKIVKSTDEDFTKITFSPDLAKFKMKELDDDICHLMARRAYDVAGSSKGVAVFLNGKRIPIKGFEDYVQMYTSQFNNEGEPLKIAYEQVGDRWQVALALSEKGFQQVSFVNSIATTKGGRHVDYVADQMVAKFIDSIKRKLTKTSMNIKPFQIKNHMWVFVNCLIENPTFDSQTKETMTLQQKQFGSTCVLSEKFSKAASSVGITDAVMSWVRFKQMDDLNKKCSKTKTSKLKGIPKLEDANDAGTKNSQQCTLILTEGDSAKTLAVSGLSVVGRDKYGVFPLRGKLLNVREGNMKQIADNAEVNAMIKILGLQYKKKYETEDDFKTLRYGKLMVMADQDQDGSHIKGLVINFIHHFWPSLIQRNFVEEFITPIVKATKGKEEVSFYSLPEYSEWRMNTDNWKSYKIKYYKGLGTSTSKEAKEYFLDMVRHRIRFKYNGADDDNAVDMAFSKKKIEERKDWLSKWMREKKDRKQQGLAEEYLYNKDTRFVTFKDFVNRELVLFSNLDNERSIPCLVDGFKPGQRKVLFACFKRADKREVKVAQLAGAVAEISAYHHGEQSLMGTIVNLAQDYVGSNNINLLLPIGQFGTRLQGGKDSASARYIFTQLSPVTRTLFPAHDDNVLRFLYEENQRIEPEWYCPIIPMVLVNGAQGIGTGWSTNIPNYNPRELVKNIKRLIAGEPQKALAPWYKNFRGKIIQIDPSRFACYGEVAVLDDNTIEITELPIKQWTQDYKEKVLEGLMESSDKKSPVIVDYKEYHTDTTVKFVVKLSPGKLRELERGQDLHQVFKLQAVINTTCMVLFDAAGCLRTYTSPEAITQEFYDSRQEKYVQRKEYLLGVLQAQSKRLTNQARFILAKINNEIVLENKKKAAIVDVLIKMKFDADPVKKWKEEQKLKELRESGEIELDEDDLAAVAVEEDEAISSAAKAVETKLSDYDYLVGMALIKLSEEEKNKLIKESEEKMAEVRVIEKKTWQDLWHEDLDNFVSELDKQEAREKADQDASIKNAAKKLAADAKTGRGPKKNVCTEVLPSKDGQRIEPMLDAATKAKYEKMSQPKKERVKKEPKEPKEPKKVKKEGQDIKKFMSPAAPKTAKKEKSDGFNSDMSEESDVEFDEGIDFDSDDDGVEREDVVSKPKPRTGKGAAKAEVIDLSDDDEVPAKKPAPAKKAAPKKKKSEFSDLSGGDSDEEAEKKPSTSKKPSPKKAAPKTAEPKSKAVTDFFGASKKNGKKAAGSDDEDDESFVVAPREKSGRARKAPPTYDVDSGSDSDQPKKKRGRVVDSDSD

B1: recombinant His-tagged NMAD-1 (enzyme, C. elegans, UniProt Q8MNT9 1-291, looked up)
chain: MGSAEQACGCKGARFCALCETTERVKKLRVVEDKHVNYKVFIYDHIRQIAIPTTNLNSQSSLEDIIDESTSCQSVSTDGSIEIDGLTLIHNFLSESEESKILNMIDTVEWAQSQSGRRKQDYGPKVNFKHKKVKTDTFVGMPEYADMLLNKMSEYDVKKLGNYQPFEMCNLEYEEVKKSAIEMHQDDMWIWGNRLISINLINGSVMTLSNDNKSFLCYVHMPHRSLLCMADECRYDWKHGVLAHHIRGRRIALTMREAAKDFAEGGELYEKYGAELIRLGNIRVPLSKTSV
notes: NMAD-1 (F09F7.7) of C. elegans; also called HIS:NMAD-1; source: E. coli BL21, purified (Ni-NTA)
  binding result: binds
